Blank lines part the entries; values can stand above or below the binder they belong to. Numbered stars: 1 amine (or outer) side, 2 acyl side, 3 side chain; on linkers, the order of the positions; unused ones are H or OH. Bridge positions count the residues as written; N and C are the ends. Side chains are listed from the residue outwards. Ends that are not written are not given here. * marks the point of attachment. C20 diacid = O=C(O)CCCCCCCCCCCCCCCCCCC(=O)*; γGlu = O=C(O)[C@H](CCC(=O)[*:2])N[*:1]; AEEA = NCCOCCOCC(=O)O
Biological target: T1, human amylin receptor (human, UniProt P30988 25-474; O60896 24-148, limits assumed)
T1 construct: whole, on cells; Calcitonin receptor plus RAMP-3 gives the amylin 3(a) receptor; membranes of Amylin 3(a)/CRE-luc cells were used; also called hAmylin-R; hAmylinR
T1 sequence (looked up) 1: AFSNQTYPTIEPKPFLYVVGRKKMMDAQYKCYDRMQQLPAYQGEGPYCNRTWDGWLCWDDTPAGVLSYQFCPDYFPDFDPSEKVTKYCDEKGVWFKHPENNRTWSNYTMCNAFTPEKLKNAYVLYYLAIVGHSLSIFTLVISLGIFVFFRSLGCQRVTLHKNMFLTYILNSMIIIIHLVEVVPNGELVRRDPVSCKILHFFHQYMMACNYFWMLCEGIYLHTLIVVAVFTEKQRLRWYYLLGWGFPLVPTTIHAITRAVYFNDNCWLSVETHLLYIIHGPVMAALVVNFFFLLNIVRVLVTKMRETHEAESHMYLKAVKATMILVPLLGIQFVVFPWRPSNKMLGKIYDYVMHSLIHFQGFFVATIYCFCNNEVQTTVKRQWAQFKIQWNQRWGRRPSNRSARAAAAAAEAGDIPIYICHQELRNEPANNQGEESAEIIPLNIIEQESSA
T1 sequence (looked up) 2: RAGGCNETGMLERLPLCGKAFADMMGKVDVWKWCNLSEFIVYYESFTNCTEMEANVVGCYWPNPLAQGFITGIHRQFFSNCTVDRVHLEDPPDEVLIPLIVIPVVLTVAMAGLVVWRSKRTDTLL
Experiment: SPA competition binding, displacement of 125I-rat amylin from membranes with human amylin 3(a) receptor (Assay V)
Method: The binding assay was performed using scintillation proximity assay (SPA) beads (RPNQ0001) from PerkinElmer and cell membranes from the Amylin 3(a)/CRE-luc cells (as described in Assay (II)) were used. Membranes were prepared in the following way; the cells were rinsed with PBS and incubated with Versene for approximately 5 min before harvesting. The cells were flushed with PBS and the cell-suspension was centrifuged for 5 min at 1000 rpm. Cells were homogenized (ultrathurrax) in a buffer containing 20 mM Na-HEPES and 10 mM EDTA (pH 7.4) and centrifuged at 20.000 rpm for 15 min. The resulting pellet was resuspended, homogenized and centrifuged (20.000 rpm, 15 min) in a buffer containing 20 mM Na-HEPES and 0.1 mM EDTA (pH 7.4, buffer 2). The resulting pellet was resuspended in buffer 2 and protein concentration was measured (BCA protein Assay, Pierce). The homogenate was kept cold during the whole procedure. The membranes were kept at −80° C. until use. The assay was performed in a 384 well Optiplate (PerkinElmer) in a total volume of 40 ul. Membranes were mixed with SPA beads. Final concentration of membranes 35 ng/μL final and SPA beads was 0.05 mg/well. Test-compounds were dissolved in DMSO and further diluted in assay buffer (50 mM Hepes, pH 7.4, 1 mM CaCl2, 5 mM MgCl₂, 0.1% OA and 0.02% Tween20). […] The final mixture was incubated with shaking at 400 rpm for 120 min at 25° C. prior to centrifugation (1500 rpm, 10 min). Samples were analyzed on TopCounter™ (Packard). The IC₅₀ was calculated using (one site binding competition analysis) GraphPad Prism5 as a measure of receptor affinity.

B2: N^ε1-[2-[2-[2-(19-carboxynonadecanoylamino)ethoxy]ethoxy]acetyl]-[Arg17,Pro21,Pro27,His34]-h-amylin (peptide)
peptide: K([AEEA-C20 diacid])CNTATCATQRLANFLRHSSPNFGAIPSSTNVGHNTY-NH2
modifications: disulfide 2-7; N-terminus assumed
SMILES: CC[C@H](C)[C@H](NC(=O)[C@H](C)NC(=O)CNC(=O)[C@H](Cc1ccccc1)NC(=O)[C@H](CC(N)=O)NC(=O)[C@@H]1CCCN1C(=O)[C@H](CO)NC(=O)[C@H](CO)NC(=O)[C@H](Cc1c[nH]cn1)NC(=O)[C@H](CCCNC(=N)N)NC(=O)[C@H](CC(C)C)NC(=O)[C@H](Cc1ccccc1)NC(=O)[C@H](CC(N)=O)NC(=O)[C@H](C)NC(=O)[C@H](CC(C)C)NC(=O)[C@H](CCCNC(=N)N)NC(=O)[C@H](CCC(N)=O)NC(=O)[C@@H](NC(=O)[C@H](C)NC(=O)[C@@H]1CSSC[C@H](NC(=O)[C@@H](N)CCCCNC(=O)COCCOCCNC(=O)CCCCCCCCCCCCCCCCCCC(=O)O)C(=O)N[C@@H](CC(N)=O)C(=O)N[C@@H]([C@@H](C)O)C(=O)N[C@@H](C)C(=O)N[C@@H]([C@@H](C)O)C(=O)N1)[C@@H](C)O)C(=O)N1CCC[C@H]1C(=O)N[C@@H](CO)C(=O)N[C@@H](CO)C(=O)N[C@H](C(=O)N[C@@H](CC(N)=O)C(=O)N[C@H](C(=O)NCC(=O)N[C@@H](Cc1c[nH]cn1)C(=O)N[C@@H](CC(N)=O)C(=O)N[C@H](C(=O)N[C@@H](Cc1ccc(O)cc1)C(N)=O)[C@@H](C)O)C(C)C)[C@@H](C)O
notes: also called 17R, 21P, 27P, 34H
IC50: 119 pM

B4: N^α1-[(4S)-4-carboxy-4-(19-carboxynonadecanoylamino)butanoyl]-[Glu14,Arg17,Pro21,Pro27]-h-amylin (peptide)
peptide: KCNTATCATQRLAEFLRHSSPNFGAIPSSTNVGSNTY
modifications: C20 diacid-gGlu on the alpha amino group of the N-terminal residue; disulfide Cys2-Cys7 and C-terminal amide as in human amylin
notes: also called 14E, 17R, 21P, 27P
IC50: 143 pM

B5: N^α1N^α1-[(4S)-4-carboxy-4-(19-carboxynonadecanoylamino)butanoyl]-[Glu14,Arg17,Pro21,Pro27,Glu35]-h-amylin (peptide)
peptide: {C20 diacid-γGlu}-KCNTATCATQRLAEFLRHSSPNFGAIPSSTNVGSETY-NH2
modifications: disulfide 2-7
SMILES: CC[C@H](C)[C@H](NC(=O)[C@H](C)NC(=O)CNC(=O)[C@H](Cc1ccccc1)NC(=O)[C@H](CC(N)=O)NC(=O)[C@@H]1CCCN1C(=O)[C@H](CO)NC(=O)[C@H](CO)NC(=O)[C@H](Cc1c[nH]cn1)NC(=O)[C@H](CCCNC(=N)N)NC(=O)[C@H](CC(C)C)NC(=O)[C@H](Cc1ccccc1)NC(=O)[C@H](CCC(=O)O)NC(=O)[C@H](C)NC(=O)[C@H](CC(C)C)NC(=O)[C@H](CCCNC(=N)N)NC(=O)[C@H](CCC(N)=O)NC(=O)[C@@H](NC(=O)[C@H](C)NC(=O)[C@@H]1CSSC[C@H](NC(=O)[C@H](CCCCN)NC(=O)CC[C@H](NC(=O)CCCCCCCCCCCCCCCCCCC(=O)O)C(=O)O)C(=O)N[C@@H](CC(N)=O)C(=O)N[C@@H]([C@@H](C)O)C(=O)N[C@@H](C)C(=O)N[C@@H]([C@@H](C)O)C(=O)N1)[C@@H](C)O)C(=O)N1CCC[C@H]1C(=O)N[C@@H](CO)C(=O)N[C@@H](CO)C(=O)N[C@H](C(=O)N[C@@H](CC(N)=O)C(=O)N[C@H](C(=O)NCC(=O)N[C@@H](CO)C(=O)N[C@@H](CCC(=O)O)C(=O)N[C@H](C(=O)N[C@@H](Cc1ccc(O)cc1)C(N)=O)[C@@H](C)O)C(C)C)[C@@H](C)O
notes: also called 14E, 17R, 21P, 27P, 35E
IC50: 794 pM

The remaining binders from weak to strong by IC50, led by results:

IC50: 196 pM
B3: N^α1-[(4S)-4-carboxy-4-[[(4S)-4-carboxy-4-(19-carboxynonadecanoylamino)butanoyl]amino]butanoyl]-[Glu14,Arg17,Pro21,Pro27,Pro37]-h-amylin (peptide)
peptide: {C20 diacid-γGlu-γGlu}-KCNTATCATQRLAEFLRHSSPNFGAIPSSTNVGSNTP-NH2
modifications: disulfide 2-7
SMILES: CC[C@H](C)[C@H](NC(=O)[C@H](C)NC(=O)CNC(=O)[C@H](Cc1ccccc1)NC(=O)[C@H](CC(N)=O)NC(=O)[C@@H]1CCCN1C(=O)[C@H](CO)NC(=O)[C@H](CO)NC(=O)[C@H](Cc1c[nH]cn1)NC(=O)[C@H](CCCNC(=N)N)NC(=O)[C@H](CC(C)C)NC(=O)[C@H](Cc1ccccc1)NC(=O)[C@H](CCC(=O)O)NC(=O)[C@H](C)NC(=O)[C@H](CC(C)C)NC(=O)[C@H](CCCNC(=N)N)NC(=O)[C@H](CCC(N)=O)NC(=O)[C@@H](NC(=O)[C@H](C)NC(=O)[C@@H]1CSSC[C@H](NC(=O)[C@H](CCCCN)NC(=O)CC[C@H](NC(=O)CC[C@H](NC(=O)CCCCCCCCCCCCCCCCCCC(=O)O)C(=O)O)C(=O)O)C(=O)N[C@@H](CC(N)=O)C(=O)N[C@@H]([C@@H](C)O)C(=O)N[C@@H](C)C(=O)N[C@@H]([C@@H](C)O)C(=O)N1)[C@@H](C)O)C(=O)N1CCC[C@H]1C(=O)N[C@@H](CO)C(=O)N[C@@H](CO)C(=O)N[C@H](C(=O)N[C@@H](CC(N)=O)C(=O)N[C@H](C(=O)NCC(=O)N[C@@H](CO)C(=O)N[C@@H](CC(N)=O)C(=O)N[C@H](C(=O)N1CCC[C@H]1C(N)=O)[C@@H](C)O)C(C)C)[C@@H](C)O
notes: also called 14E, 17R, 21P, 27P, 37P

IC50: 72 pM
B1: N^α1-[(4S)-4-carboxy-4-(19-carboxynonadecanoylamino)butanoyl]-[Glu14,Arg17,Pro21,Pro27,Pro37]-h-amylin (peptide)
peptide: {C20 diacid-γGlu}-KCNTATCATQRLAEFLRHSSPNFGAIPSSTNVGSNTP-NH2
modifications: disulfide 2-7
SMILES: CC[C@H](C)[C@H](NC(=O)[C@H](C)NC(=O)CNC(=O)[C@H](Cc1ccccc1)NC(=O)[C@H](CC(N)=O)NC(=O)[C@@H]1CCCN1C(=O)[C@H](CO)NC(=O)[C@H](CO)NC(=O)[C@H](Cc1c[nH]cn1)NC(=O)[C@H](CCCNC(=N)N)NC(=O)[C@H](CC(C)C)NC(=O)[C@H](Cc1ccccc1)NC(=O)[C@H](CCC(=O)O)NC(=O)[C@H](C)NC(=O)[C@H](CC(C)C)NC(=O)[C@H](CCCNC(=N)N)NC(=O)[C@H](CCC(N)=O)NC(=O)[C@@H](NC(=O)[C@H](C)NC(=O)[C@@H]1CSSC[C@H](NC(=O)[C@H](CCCCN)NC(=O)CC[C@H](NC(=O)CCCCCCCCCCCCCCCCCCC(=O)O)C(=O)O)C(=O)N[C@@H](CC(N)=O)C(=O)N[C@@H]([C@@H](C)O)C(=O)N[C@@H](C)C(=O)N[C@@H]([C@@H](C)O)C(=O)N1)[C@@H](C)O)C(=O)N1CCC[C@H]1C(=O)N[C@@H](CO)C(=O)N[C@@H](CO)C(=O)N[C@H](C(=O)N[C@@H](CC(N)=O)C(=O)N[C@H](C(=O)NCC(=O)N[C@@H](CO)C(=O)N[C@@H](CC(N)=O)C(=O)N[C@H](C(=O)N1CCC[C@H]1C(N)=O)[C@@H](C)O)C(C)C)[C@@H](C)O
notes: as for B3

IC50: 61 pM
B6: N^ε1-[2-[2-[2-(19-carboxynonadecanoylamino)ethoxy]ethoxy]acetyl]-[His14,Arg17,Pro21,Pro27]-h-amylin (peptide)
peptide: K([AEEA-C20 diacid])CNTATCATQRLAHFLRHSSPNFGAIPSSTNVGSNTY-NH2
modifications: disulfide 2-7; N-terminus assumed
SMILES: CC[C@H](C)[C@H](NC(=O)[C@H](C)NC(=O)CNC(=O)[C@H](Cc1ccccc1)NC(=O)[C@H](CC(N)=O)NC(=O)[C@@H]1CCCN1C(=O)[C@H](CO)NC(=O)[C@H](CO)NC(=O)[C@H](Cc1c[nH]cn1)NC(=O)[C@H](CCCNC(=N)N)NC(=O)[C@H](CC(C)C)NC(=O)[C@H](Cc1ccccc1)NC(=O)[C@H](Cc1c[nH]cn1)NC(=O)[C@H](C)NC(=O)[C@H](CC(C)C)NC(=O)[C@H](CCCNC(=N)N)NC(=O)[C@H](CCC(N)=O)NC(=O)[C@@H](NC(=O)[C@H](C)NC(=O)[C@@H]1CSSC[C@H](NC(=O)[C@@H](N)CCCCNC(=O)COCCOCCNC(=O)CCCCCCCCCCCCCCCCCCC(=O)O)C(=O)N[C@@H](CC(N)=O)C(=O)N[C@@H]([C@@H](C)O)C(=O)N[C@@H](C)C(=O)N[C@@H]([C@@H](C)O)C(=O)N1)[C@@H](C)O)C(=O)N1CCC[C@H]1C(=O)N[C@@H](CO)C(=O)N[C@@H](CO)C(=O)N[C@H](C(=O)N[C@@H](CC(N)=O)C(=O)N[C@H](C(=O)NCC(=O)N[C@@H](CO)C(=O)N[C@@H](CC(N)=O)C(=O)N[C@H](C(=O)N[C@@H](Cc1ccc(O)cc1)C(N)=O)[C@@H](C)O)C(C)C)[C@@H](C)O
notes: also called 14H, 17R, 21P, 27P

From US20140087995A1 (published 2014)
